Assay results published in US20120329718A1.

Target: M2 muscarinic acetylcholine receptor, endogenous, canine atrium (canine)
Experiment: cell-based or functional assay

| vagal-induced ERP shortening in the PLA, 3 days after minigene delivery (Gαi2ctp dogs vs. GαRp control dogs) | vagal-induced ERP shortening in the PLA, Gαo1ctp minigene given together with Gαi2ctp minigene (vs. Gαi2ctp alone) | Substance |
| --- | --- | --- |
| 19.5 ms | – | Gαi2 C-terminal peptide expressed from a pFLAG CMV6a minigene (FLAG-tagged Gαi2ctp) |
| – | 2.8 ms | Gαo1 C-terminal peptide expressed from a pFLAG CMV6a minigene (Gαo1ctp) |
